3 sequences from the supplement of paper PMC6379048 can be followed below.

Test in all cases: Kd (EC50 corrected by depletion factor)
One data set has as its target P4HB (UniProt P07237). Summed up:
(§1)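 Over three biological replicates and two independent experiments, proteins captured on NHS-Sepharose beads carrying 5′-amino-C6 RNA oligos were quantified by label-free LC-MS/MS and normalised to the control. Capture lasted 30 min at 4°C and followed a 1 h pre-incubation at 4°C of HEK293-FT lysate (2.5 mg protein/well) with the same oligos in free form (0 nM to 30 μM). EC50 was taken from a four-parameter log-logistic fit, and Kd was EC50 corrected by a protein-dependent depletion factor.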

The target of another data set is PTBP3 (UniProt O95758). The essentials: as §1
Sequence of PTBP3 (O95758 whole entry): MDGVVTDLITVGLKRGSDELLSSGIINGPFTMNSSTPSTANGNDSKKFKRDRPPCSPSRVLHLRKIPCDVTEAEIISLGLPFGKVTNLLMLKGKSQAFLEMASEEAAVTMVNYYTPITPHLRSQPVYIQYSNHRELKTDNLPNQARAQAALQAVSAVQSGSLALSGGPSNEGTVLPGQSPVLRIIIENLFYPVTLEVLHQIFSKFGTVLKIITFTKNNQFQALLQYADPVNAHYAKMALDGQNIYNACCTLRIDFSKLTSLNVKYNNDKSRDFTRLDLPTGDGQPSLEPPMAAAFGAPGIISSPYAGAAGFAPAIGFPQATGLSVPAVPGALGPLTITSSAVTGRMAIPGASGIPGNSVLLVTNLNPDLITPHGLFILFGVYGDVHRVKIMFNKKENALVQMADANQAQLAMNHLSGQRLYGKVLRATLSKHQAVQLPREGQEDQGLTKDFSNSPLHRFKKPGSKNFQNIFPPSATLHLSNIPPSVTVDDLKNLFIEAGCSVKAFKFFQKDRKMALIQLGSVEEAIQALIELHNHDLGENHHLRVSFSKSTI
The target of a further data set is T1, RBM14 (UniProt Q96PK6).
T1 sequence: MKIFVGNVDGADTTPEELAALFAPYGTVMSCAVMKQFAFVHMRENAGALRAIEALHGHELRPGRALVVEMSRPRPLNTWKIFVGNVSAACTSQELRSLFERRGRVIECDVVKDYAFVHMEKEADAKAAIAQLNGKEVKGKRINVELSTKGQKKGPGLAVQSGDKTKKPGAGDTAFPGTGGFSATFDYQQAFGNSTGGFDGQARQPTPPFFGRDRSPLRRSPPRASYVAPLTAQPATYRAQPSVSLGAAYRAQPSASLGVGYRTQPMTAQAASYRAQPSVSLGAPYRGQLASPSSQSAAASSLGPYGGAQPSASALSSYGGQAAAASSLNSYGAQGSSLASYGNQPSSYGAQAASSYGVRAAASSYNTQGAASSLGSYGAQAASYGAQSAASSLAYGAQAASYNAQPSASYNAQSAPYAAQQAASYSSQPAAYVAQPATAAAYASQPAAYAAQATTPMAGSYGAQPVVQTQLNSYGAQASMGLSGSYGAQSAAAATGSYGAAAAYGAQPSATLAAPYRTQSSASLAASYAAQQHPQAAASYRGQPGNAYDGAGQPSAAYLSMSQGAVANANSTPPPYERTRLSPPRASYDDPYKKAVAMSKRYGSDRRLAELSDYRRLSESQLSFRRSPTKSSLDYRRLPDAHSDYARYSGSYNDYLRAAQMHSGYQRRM
The essentials: as §1

A further data set addresses PIP5K1A (UniProt Q99755). The essentials:
as §1

In a further data set the target is T2, U2AF1 (UniProt Q01081).
T2 sequence: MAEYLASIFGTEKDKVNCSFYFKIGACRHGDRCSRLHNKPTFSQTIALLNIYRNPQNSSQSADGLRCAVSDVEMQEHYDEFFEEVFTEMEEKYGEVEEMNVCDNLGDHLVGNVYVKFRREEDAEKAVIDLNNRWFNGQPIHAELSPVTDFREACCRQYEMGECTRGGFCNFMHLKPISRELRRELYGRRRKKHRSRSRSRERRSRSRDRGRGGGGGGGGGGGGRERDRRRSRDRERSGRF
Summed up: as §1

For the next data set, the target named is CXorf57 (UniProt Q6NSI4). Summed up:
as §1

The target in another data set is T3, SRSF4 (UniProt Q08170).
T3 sequence: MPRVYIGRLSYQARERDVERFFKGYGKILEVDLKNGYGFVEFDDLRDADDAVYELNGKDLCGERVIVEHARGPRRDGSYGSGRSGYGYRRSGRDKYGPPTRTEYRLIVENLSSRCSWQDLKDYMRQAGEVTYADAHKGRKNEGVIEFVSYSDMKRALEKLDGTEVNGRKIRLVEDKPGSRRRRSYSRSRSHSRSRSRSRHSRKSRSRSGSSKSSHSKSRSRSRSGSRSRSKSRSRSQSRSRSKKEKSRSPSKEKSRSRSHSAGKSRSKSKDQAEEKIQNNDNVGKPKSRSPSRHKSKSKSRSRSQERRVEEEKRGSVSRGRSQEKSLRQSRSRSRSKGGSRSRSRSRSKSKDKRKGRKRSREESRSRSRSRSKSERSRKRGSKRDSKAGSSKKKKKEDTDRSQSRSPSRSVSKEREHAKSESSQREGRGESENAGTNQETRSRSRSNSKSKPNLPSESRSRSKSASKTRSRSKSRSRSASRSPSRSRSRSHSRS
The essentials: as §1

The target of the next data set is RPS13 (UniProt P62277). Summed up:
as §1

The target of a further data set is MRPL14 (UniProt Q6P1L8). Summed up: as §1
For another data set, the target named is MRPL49 (UniProt Q13405). Summed up:
as §1

The next data set addresses T4, CSTF1 (UniProt Q05048).
T4 sequence: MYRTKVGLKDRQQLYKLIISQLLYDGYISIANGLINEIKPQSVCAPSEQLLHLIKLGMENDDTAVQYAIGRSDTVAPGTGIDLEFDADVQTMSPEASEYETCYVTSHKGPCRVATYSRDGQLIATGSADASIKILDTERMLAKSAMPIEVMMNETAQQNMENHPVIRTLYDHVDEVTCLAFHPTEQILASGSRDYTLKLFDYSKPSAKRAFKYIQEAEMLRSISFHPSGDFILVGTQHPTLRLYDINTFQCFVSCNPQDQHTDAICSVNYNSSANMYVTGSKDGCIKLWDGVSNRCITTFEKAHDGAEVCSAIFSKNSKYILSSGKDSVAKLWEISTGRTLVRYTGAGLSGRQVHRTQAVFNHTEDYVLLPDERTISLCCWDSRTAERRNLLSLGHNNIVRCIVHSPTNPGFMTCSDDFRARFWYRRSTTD
Summed up:
as §1

The target in another data set is SKIV2L (UniProt Q15477). Summed up:
as §1

The target in a further data set is MRPS2 (UniProt Q9Y399). Summed up:
as §1

Sequence of SKIV2L (Q15477 whole entry): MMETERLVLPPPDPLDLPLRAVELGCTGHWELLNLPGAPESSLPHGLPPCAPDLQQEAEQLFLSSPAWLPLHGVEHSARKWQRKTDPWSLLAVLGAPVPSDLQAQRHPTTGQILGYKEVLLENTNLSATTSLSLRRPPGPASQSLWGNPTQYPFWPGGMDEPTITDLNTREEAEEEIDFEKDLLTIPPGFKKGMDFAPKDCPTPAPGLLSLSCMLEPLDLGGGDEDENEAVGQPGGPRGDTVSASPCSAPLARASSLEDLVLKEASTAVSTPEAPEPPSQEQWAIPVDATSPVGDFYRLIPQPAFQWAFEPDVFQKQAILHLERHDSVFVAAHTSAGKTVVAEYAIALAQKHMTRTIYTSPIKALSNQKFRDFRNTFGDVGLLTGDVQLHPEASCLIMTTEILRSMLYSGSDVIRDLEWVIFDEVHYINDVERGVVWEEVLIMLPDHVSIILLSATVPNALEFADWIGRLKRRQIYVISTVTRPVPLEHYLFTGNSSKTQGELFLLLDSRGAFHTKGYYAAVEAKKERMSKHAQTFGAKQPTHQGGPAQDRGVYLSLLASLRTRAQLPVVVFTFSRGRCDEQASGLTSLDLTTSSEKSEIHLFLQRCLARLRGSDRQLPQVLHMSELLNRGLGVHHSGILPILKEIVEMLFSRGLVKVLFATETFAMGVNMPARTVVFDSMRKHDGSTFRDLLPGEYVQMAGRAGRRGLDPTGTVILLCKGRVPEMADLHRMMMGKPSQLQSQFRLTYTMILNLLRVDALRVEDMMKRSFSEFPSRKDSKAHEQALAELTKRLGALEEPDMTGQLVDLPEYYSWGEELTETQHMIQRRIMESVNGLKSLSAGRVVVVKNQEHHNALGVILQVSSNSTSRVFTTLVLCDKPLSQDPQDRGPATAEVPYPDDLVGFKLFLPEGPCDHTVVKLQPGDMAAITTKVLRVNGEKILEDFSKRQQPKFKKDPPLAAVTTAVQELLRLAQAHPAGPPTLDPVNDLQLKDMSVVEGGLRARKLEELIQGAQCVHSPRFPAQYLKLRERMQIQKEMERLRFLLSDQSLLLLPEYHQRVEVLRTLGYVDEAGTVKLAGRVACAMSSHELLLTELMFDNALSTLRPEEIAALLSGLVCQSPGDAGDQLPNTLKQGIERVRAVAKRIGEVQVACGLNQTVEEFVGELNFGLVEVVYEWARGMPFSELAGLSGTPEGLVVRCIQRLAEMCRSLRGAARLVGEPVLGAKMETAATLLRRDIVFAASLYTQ
Sequence of CXorf57 (Q6NSI4 whole entry): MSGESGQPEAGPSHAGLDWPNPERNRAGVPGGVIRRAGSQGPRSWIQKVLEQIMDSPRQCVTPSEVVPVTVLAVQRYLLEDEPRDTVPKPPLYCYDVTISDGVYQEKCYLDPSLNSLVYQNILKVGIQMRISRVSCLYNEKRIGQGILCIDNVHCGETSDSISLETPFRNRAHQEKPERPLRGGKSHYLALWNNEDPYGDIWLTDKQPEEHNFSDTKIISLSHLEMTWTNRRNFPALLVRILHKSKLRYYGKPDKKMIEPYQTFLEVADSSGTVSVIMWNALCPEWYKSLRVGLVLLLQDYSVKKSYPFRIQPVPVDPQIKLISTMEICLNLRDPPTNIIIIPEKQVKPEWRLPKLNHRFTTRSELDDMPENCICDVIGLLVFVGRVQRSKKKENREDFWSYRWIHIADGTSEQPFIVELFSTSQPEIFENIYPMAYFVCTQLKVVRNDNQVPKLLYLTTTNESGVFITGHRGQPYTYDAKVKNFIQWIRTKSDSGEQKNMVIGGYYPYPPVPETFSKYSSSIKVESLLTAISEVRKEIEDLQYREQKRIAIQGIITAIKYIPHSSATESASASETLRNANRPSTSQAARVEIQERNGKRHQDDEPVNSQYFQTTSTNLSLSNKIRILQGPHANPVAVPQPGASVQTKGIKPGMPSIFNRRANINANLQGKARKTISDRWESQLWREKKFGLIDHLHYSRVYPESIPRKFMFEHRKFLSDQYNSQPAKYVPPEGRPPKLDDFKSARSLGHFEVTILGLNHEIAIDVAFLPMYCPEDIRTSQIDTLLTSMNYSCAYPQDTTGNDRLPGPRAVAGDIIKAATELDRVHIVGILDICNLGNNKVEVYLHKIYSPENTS
Sequence of PIP5K1A (Q99755 whole entry): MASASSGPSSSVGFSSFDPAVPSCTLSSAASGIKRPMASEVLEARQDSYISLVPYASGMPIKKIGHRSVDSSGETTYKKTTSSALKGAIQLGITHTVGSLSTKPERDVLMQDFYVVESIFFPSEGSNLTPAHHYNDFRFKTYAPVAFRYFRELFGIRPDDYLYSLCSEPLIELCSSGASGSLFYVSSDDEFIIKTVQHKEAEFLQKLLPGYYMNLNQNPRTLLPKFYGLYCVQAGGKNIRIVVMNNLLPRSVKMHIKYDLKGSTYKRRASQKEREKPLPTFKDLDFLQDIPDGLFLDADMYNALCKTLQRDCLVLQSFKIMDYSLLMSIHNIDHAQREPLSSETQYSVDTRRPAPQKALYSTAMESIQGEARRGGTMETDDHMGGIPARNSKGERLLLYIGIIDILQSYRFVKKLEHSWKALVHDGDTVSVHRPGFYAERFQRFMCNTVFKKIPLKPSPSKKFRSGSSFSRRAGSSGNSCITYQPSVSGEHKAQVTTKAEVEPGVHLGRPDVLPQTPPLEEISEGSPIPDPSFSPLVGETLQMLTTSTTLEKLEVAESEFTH
Sequence of P4HB (P07237 whole entry, looked up): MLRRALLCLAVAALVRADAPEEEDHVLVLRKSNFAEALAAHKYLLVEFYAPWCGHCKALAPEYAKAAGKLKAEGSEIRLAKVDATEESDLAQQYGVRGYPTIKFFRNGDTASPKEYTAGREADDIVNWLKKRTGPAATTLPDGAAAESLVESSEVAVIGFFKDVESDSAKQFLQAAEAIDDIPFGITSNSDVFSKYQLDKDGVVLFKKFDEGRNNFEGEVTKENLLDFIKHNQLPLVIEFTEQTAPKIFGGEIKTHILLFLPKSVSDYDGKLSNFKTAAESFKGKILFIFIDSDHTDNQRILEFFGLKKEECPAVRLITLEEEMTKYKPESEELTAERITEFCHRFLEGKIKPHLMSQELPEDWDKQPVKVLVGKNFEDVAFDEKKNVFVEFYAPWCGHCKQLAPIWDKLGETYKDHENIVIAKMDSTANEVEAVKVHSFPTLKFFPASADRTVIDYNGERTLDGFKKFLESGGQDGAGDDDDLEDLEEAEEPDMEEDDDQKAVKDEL

One may read the Kd as the equilibrium constant for the complex coming apart. Higher therefore signals weaker binding. Consider AAUAAA, for which the Kd with P4HB is 24.8 nM; in the data set with PTBP3, 1290 nM; in the data set with RBM14 it was 600 nM; with PIP5K1A, 467 nM; with U2AF1, 202 nM; in the data set with CXorf57, 1040 nM.
In the case of CUGUCCU, the Kd worked out at 312 nM in the data set with SRSF4, 39.9 nM with RPS13, 53.5 nM with MRPL14 and 37 nM with MRPL49.
Turning to UAUUUAU, the Kd with CSTF1 turned out to be 322 nM; in the data set with SKIV2L it was 902 nM; in the data set with MRPS2 it was 27.7 nM.
